Laboratory results from US20210198377A1 (XDCEXPLORER SHANGHAI, published 2021).

How the values were obtained:
[1] = target: T1, human TPBG (full length, on cells) (human, UniProt Q13641 32-420); assay: FACS, HEK293 clone 293F-hTPBG 5A11
T1 sequence (looked up): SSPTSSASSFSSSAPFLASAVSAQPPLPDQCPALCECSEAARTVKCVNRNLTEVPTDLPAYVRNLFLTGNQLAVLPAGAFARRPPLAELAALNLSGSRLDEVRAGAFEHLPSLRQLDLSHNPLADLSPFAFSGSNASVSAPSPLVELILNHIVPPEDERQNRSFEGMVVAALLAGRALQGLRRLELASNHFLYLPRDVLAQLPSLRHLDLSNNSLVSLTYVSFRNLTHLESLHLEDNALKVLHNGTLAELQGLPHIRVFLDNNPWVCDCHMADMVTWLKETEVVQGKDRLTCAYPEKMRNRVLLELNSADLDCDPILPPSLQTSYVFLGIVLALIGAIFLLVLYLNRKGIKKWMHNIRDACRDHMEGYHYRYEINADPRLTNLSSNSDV

[2] = target: T1, human TPBG (full length, on cells); assay: FACS, HEK293 clone 293F-hTPBG 4E1
human TPBG-hFc [3] = target: T2, human TPBG-hFc (human, UniProt Q13641 32-355); assay: ELISA, coated human TPBG-hFc 1.0 ug/mL; control IgG 0.02 nM
T2 construct: also called immunogen A; hFc tagged TPBG protein; not shown: The human IgG Fc fragment of the pCpC vector (Invitrogen V044-50) and any linker to it
T2 sequence: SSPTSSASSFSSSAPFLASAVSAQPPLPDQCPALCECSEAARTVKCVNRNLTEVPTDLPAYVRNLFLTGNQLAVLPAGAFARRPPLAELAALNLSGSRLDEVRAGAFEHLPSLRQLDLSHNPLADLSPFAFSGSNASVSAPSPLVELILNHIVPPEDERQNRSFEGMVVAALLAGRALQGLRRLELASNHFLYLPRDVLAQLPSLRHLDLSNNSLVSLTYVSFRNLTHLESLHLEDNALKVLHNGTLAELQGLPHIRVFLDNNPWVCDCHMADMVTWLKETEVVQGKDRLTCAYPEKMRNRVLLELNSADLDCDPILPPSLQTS

[4] = target: T1, human TPBG (full length, on cells); assay: FACS, HEK293 clone 293F-hTPBG 5H6
[5] = target: T1, human TPBG (full length, on cells); assay: FACS, HEK293 clone 293F-hTPBG 5G8
[6] = target: T1, human TPBG (full length, on cells); assay: FACS, HEK293 clone 293F-hTPBG 4F9
[7] = target: T1, human TPBG (full length, on cells); assay: FACS, HEK293 clone 293F-hTPBG 4E1 (NO. 8)
[8] = target: cynomolgus monkey TPBG (full length, on cells) (cynomolgus monkey) (UniProt Q4R8Y9); assay: FACS on CHO-k1-cTPBG 3F13G4 cells
[9] = target: T1, human TPBG (full length, on cells); assay: FACS, HEK293 clone 293F-hTPBG 5C12
[10] = target: T1, human TPBG (full length, on cells); assay: FACS, HEK293 clone 293F-hTPBG 5A9
human TPBG-hFc [11] = target: T2, human TPBG-hFc; assay: ELISA, coated human TPBG-hFc 1.0 ug/mL; control IgG 0.0002 nM
[12] = target: T1, human TPBG (full length, on cells); assay: FACS, HEK293 clone 293F-hTPBG 4C3
[13] = target: T1, human TPBG (full length, on cells); assay: FACS, HEK293 clone 293F-hTPBG 4A9
[14] = target: T1, human TPBG (full length, on cells); assay: FACS, HEK293 clone 293F-hTPBG 4G1
[15] = target: T1, human TPBG (full length, on cells); assay: FACS, HEK293 clone 293F-hTPBG 4B9
[16] = target: T1, human TPBG (full length, on cells); assay: FACS, HEK293 clone 293F-hTPBG 5G11
[17] = target: T1, human TPBG (full length, on cells); assay: FACS, HEK293 clone 293F-hTPBG 4H12
[18] = target: T1, human TPBG (full length, on cells); assay: FACS, HEK293 clone 293F-hTPBG 5E5
human TPBG-hFc [19] = target: T2, human TPBG-hFc; assay: ELISA, coated human TPBG-hFc 1.0 ug/mL; control IgG 200 nM
[20] = target: T1, human TPBG (full length, on cells); assay: FACS, HEK293 clone 293F-hTPBG 4C5
[21] = target: T3, mouse TPBG (full length, on cells) (mouse, UniProt Q9Z0L0 32-426); assay: FACS on CHO-k1-mTPBG 3A3 cells
T3 construct: whole, on cells; On transfected CHO-K1 cells; also called mTPBG; CHO-K1-mTPBG
T3 sequence (looked up): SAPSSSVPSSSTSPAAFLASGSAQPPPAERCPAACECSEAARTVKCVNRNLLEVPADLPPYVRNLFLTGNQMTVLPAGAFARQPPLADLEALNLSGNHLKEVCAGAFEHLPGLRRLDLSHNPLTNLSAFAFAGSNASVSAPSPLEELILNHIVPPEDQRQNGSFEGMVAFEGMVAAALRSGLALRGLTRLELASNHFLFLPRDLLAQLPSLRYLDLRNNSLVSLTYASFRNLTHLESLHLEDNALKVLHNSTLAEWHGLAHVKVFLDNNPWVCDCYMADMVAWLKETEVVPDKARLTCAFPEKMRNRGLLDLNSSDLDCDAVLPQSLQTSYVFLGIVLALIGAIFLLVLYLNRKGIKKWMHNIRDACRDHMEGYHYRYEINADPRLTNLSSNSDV

human TPBG-hFc [22] = target: T2, human TPBG-hFc; assay: ELISA, coated human TPBG-hFc 1.0 ug/mL; control IgG 20 nM
[23] = target: T1, human TPBG (full length, on cells); assay: FACS, HEK293 clone 293F-hTPBG 4A8
[24] = target: T1, human TPBG (full length, on cells); assay: FACS, HEK293 clone 293F-hTPBG 5E6
[25] = target: T1, human TPBG (full length, on cells); assay: FACS on CHO-k1-hTPBG 3A2F1 cells
[26] = target: T1, human TPBG (full length, on cells); assay: FACS, HEK293 clone 293F-hTPBG 4G6
human TPBG-hFc [27] = target: T2, human TPBG-hFc; assay: ELISA, coated human TPBG-hFc 1.0 ug/mL; control IgG 0.002 nM
[28] = target: T1, human TPBG (full length, on cells); assay: FACS, HEK293 clone 293F-hTPBG 5D4
human TPBG-hFc [29] = target: T2, human TPBG-hFc; assay: ELISA, coated human TPBG-hFc 1.0 ug/mL; control IgG 0.2 nM
human TPBG-hFc [30] = target: T2, human TPBG-hFc; assay: ELISA, coated human TPBG-hFc 1.0 ug/mL; control IgG 2 nM

- MFI [1]: 4.6 MFI
- MFI [2]: 5.2 MFI
- OD450nm (human TPBG-hFc [3]): 0.1 OD450nm
- MFI [4]: 3 MFI
- MFI [5]: 6 MFI
- MFI [6]: 3.9 MFI
- MFI [7]: 4.8 MFI
- MFI [8]: 2.66 MFI
- MFI [9]: 3.7 MFI
- MFI [10]: 5 MFI
- OD450nm (human TPBG-hFc [11]): 0.11 OD450nm
- MFI [12]: 3.2 MFI
- MFI [13]: 6.3 MFI
- MFI [14]: 4 MFI
- MFI [15]: 6.3 MFI
- MFI [16]: 4.1 MFI
- MFI [17]: 4 MFI
- MFI [18]: 5.6 MFI
- OD450nm (human TPBG-hFc [19]): 0.24 OD450nm
- MFI [20]: 5.6 MFI
- MFI [21]: 2.38 MFI
- OD450nm (human TPBG-hFc [22]): 0.11 OD450nm
- MFI [23]: 3.1 MFI
- MFI [24]: 2.6 MFI
- MFI [25]: 3.24 MFI
- MFI [26]: 3.1 MFI
- OD450nm (human TPBG-hFc [27]): 0.1 OD450nm
- MFI [28]: 3 MFI
- OD450nm (human TPBG-hFc [29]): 0.11 OD450nm
- OD450nm (human TPBG-hFc [30]): 0.1 OD450nm
Substance: mouse IgG control (antibody)
